# Experiments:
# [1] = target: neuropeptide Y2 receptor (SK-N-BE cell membranes) (UniProt P49146); test: [125I]-human PYY displacement, SK-N-BE membranes
# calcitonin receptor [2] = test: calcitonin receptor binding assay
# calcitonin receptor [3] = test: cell-based or functional assay
# neuropeptide Y2 receptor (SK-N-BE cell membranes), sequence (P49146 whole entry): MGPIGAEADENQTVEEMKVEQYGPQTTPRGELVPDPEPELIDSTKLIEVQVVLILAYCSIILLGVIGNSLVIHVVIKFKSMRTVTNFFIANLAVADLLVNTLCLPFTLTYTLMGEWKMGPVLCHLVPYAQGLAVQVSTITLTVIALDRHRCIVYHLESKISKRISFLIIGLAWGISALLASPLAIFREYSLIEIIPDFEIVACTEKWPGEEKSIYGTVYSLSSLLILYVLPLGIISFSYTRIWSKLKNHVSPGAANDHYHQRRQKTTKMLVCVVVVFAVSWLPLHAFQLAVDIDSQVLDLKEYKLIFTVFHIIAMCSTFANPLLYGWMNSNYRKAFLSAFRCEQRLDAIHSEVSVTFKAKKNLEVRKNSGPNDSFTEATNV
Substance,Receptor Binding [1],Receptor Binding (calcitonin receptor [2]),Receptor Activation: CT cyclase (calcitonin receptor [3])
"[#Cys-Gly-Gly-PYY (3-36), amide] [Asp(#)-Pro-Pro-Pro-Pro-Pro-Pro-PYY (3-36), amide] (peptide; modification not given)",0.8,–,–
"[#Cys-Gly-Gly-PYY (3-36), amide] [Asp(#)-miniPEG3-Gly-PYY (3-36), amide] (peptide; modification not given)",0.8,–,–
"[#NH-Cys-(bAla)-PYY-(3-36), amide] [#Suc-(bAla)-PYY-(3-36), amide] (peptide)",–,643,2270

# Now from value to substance:
Receptor Binding [1],Receptor Binding (calcitonin receptor [2]),Receptor Activation: CT cyclase (calcitonin receptor [3]),Substance
0.2,–,–,"[Ac-alpha-MSH-bAla-bAla-PYY-(3-36), amide] (peptide; modification not given)"
0.8,–,–,"[Asp(#)-miniPEG-Gly-PYY (3-36), amide] [#Cys-Gly-Gly-PYY (3-36), amide] (peptide; modification not given)"

# — patent publication US20090286723A1
